# In the RNAGym collection of RNA variant scans (doi:10.7554/elife.80360):
# B1: Hairpin Ribozyme (parent)
# chain: GUCCUCUUUCACGUGCGCGUGAAAGAGAGAAGUGAACCAGAGAAACACACGUUGUGGUAUAUUACCUGGUA
# Variants of: B1
# Assay: self-cleavage, relative activity (ratio to wild type); higher = more cleavage; co-transcriptional
row,Variant,self-cleavage
1,A28G C46A,0.199
2,A28G U60A,0.661
3,G27U C46G,0.0944
4,G27U C46A,0.13
5,G27U A43G,0.169
6,G27U A43C,0.0898
7,A28C U63C,0.251
8,A28C U63G,0.176
9,A28U A36U,0.276
10,A28U U53A,0.845
11,A28C,0.497
12,A28G,1.12
13,A28U,0.656
14,G27C A47U,0.0683
15,G27A C46G,0.138
16,G27A C46A,0.103
17,A28U U60A,0.493
18,G27C U67A,0.104
19,G27A C66U,0.13
20,A26U U52C,0.656
21,G27A G51C,0.238
22,G27C G42U,0.172
23,G27A C50A,0.104
24,G27A G56A,0.116

row,Variant,self-cleavage
1,G29A A61C,0.163
2,G29A A61G,0.125
3,G27A A71U,0.28
4,A28G U55C,0.53
5,A28G U55A,0.208
6,A28C U60A,0.448
7,G27C U62G,0.161
8,G27C U62C,0.12
9,A28U G56A,0.174
10,A28U G56U,0.0609
11,A28U G56C,0.151
12,G29A G69C,0.14
13,G29A G69U,0.113
14,G29A G40U,0.0938
15,G29A A49C,0.179
16,A28U A31U,0.138
17,G29A U33A,0.203
18,G27U A31G,0.164
19,G27U U62A,0.137
20,A28U G40C,0.0881
21,A26U U62C,0.192
22,A26U U62A,0.214
23,A28C G42C,0.109
24,A28C G42A,0.29

row,Variant,self-cleavage
1,G27C U63G,0.101
2,G27U U63G,0.243
3,G27U U63A,0.0592
4,A28G A44G,0.222
5,A28G G32C,0.119
6,A26U G42C,0.139
7,A26U G42U,0.173
8,A28G G34A,1.25
9,A28C A47G,0.0559
10,A28C A47C,0.0848
11,G29A G34C,0.248
12,A28U A71G,0.673
13,G27C U58G,0.188
14,G27C U58A,0.123
15,A28C U55C,0.216
16,A28C U55G,0.217
17,G29A G68C,0.143
18,G29A G68A,0.125
19,G29A G68U,0.306
20,G29A U55G,0.143
21,G29A U55A,0.13
22,G27C A39U,0.0549
23,G29A G42A,0.139
24,A28G G54U,0.541

row,Variant,self-cleavage
1,A28U A49U,0.111
2,A28G A45G,0.242
3,A28C G68C,0.309
4,G27C U70G,0.122
5,G27C A28G,0.128
6,G27C A28U,0.138
7,G27C A28C,0.164
8,A28C C66G,0.197
9,A28C C66U,0.227
10,G27C A49G,0.075
11,G27C A49C,0.203
12,A26U U70G,0.397
13,A26U U70A,0.575
14,G27U G51A,0.307
15,G27U A47G,0.222
16,G27U A47C,0.157
17,G27U G32U,0.211
18,G27U G32A,0.104
19,A26U U63G,0.158
20,A28G A59C,0.114
21,A28G A59G,0.181
22,G27A U58C,0.516
23,A28U G54U,0.3
24,G27A G40U,0.179

row,Variant,self-cleavage
1,G27C C65G,0.152
2,G27U C38U,0.157
3,G27U G42C,0.0625
4,G27U G42A,0.149
5,A28G A36G,1.16
6,G29A C50G,0.187
7,G27C A45C,0.11
8,A26U C65G,0.111
9,G27C C46U,0.106
10,A28U A35U,0.505
11,A28C C37U,0.396
12,G27C C37G,0.239
13,G27C C37U,0.0764
14,A28G C50U,0.439
15,A28G C50G,0.467
16,A28U A59C,0.0961
17,A28U A59U,0.185
18,G27A C38G,0.0969
19,A26U G54A,0.318
20,A28G G29U,0.0365
21,A28G A30C,0.0631
22,A28G A30G,0.218
23,G27U G57C,0.159
24,G29A A47U,0.107

row,Variant,self-cleavage
1,G29A A47C,0.107
2,G27C C48G,0.164
3,G27C C48A,0.0978
4,G27C A59C,0.104
5,G27C A59G,0.0478
6,A28G A49G,0.637
7,A28G A49U,0.118
8,G27C A61G,0.237
9,G27C A61C,0.0843
10,G27A A59G,0.191
11,G27A A59C,0.103
12,G27A A59U,0.185
13,G27A A41C,0.602
14,G27A A41U,0.744
15,G27A A41G,0.261
16,A26U G29A,0.198
17,G27A C37A,0.219
18,G27A C37U,0.32
19,G27A G69A,0.155
20,G27U C65A,0.184
21,G27U G34A,0.282
22,G27U G34U,1.15
23,A26U G56A,0.129
24,A26U G56U,0.279

row,Variant,self-cleavage
1,G27A A47U,0.111
2,A28C A43U,0.148
3,A28C A43C,0.125
4,A28U G57C,0.113
5,G27A A30U,0.0812
6,G27U A61C,0.149
7,G27U U60C,0.383
8,G27A A35U,0.261
9,G27A A35G,0.449
10,G27A A44G,0.0958
11,G29A A35U,0.0646
12,A28C C38G,0.194
13,A28C C38U,0.218
14,G27U U58A,0.153
15,G27U U58G,0.225
16,A28C G57A,0.119
17,G27A U55G,0.144
18,G27A U55C,0.211
19,G27U G29A,0.225
20,G27U G29U,0.119
21,G27U G29C,0.101
22,G27U G56A,0.0845
23,G27U G56U,0.108
24,A28G G68C,0.115

row,Variant,self-cleavage
1,A28C A41U,1.12
2,G27C A64C,0.128
3,G27C A64U,0.184
4,G27A U70A,0.426
5,G27A U70C,0.391
6,A28U C65G,0.151
7,A28U C65U,0.153
8,A28U G32U,0.258
9,A26U U33G,0.107
10,G27A A61C,0.107
11,A28U U55C,0.161
12,A28U U55G,0.159
13,A28U C46A,0.0952
14,A28U G68U,0.272
15,A28U G68A,0.153
16,A28U G68C,0.151
17,A26U G34U,1.37
18,G27U A59C,0.0836
19,G27U A59G,0.209
20,G27A A43C,0.0674
21,A26U C50G,0.148
22,A26U C50A,0.209
23,G27A G42A,0.153
24,A28U A61G,0.0909

row,Variant,self-cleavage
1,A26U U60G,0.437
2,A26U U60C,0.898
3,G29A C66G,0.0855
4,G27U C37A,0.108
5,A28C U53A,0.39
6,A28C U53G,0.213
7,A28G A61U,0.182
8,A28G A61C,0.434
9,G27A G29C,0.12
10,A28U A39C,0.337
11,A28G U67C,0.276
12,G29A G32A,0.181
13,A28G A31U,0.0204
14,A28G A31G,0.416
15,A28C G51A,0.517
16,A28C G51C,0.336
17,A28G A64C,0.165
18,A28G A64U,0.159
19,A28U G42A,0.167
20,A28U A41U,1.31
21,A28U A41G,0.35
22,A28C A61U,0.272
23,G27C G32C,0.13
24,G27C G32A,0.191

row,Variant,self-cleavage
1,A28C A39U,0.127
2,A28C A39C,0.238
3,A28G A43U,0.123
4,A28G A43G,0.158
5,A28C U52A,0.492
6,G27U A44U,0.169
7,A28U C66U,0.207
8,A28U C66G,0.302
9,A28C C48G,0.128
10,A28U A45G,0.121
11,A26U U53C,0.599
12,A28G U70C,0.859
13,A28C A31G,0.333
14,A28C A31U,0.107
15,A28U U63C,0.113
16,G27U G40U,0.0783
17,G27U G40C,0.0532
18,G27U A28C,0.179
19,G27U U52A,0.354
20,A28U G51C,0.49
21,A28U G51U,0.485
22,A28G U63C,0.138
23,A28G U63G,0.223
24,A28G U63A,0.141

row,Variant,self-cleavage
1,G27U U70A,0.172
2,G27A A36U,0.198
3,A28G C66U,0.654
4,A28G C66G,0.0858
5,G27A A45U,0.201
6,A28C G29C,0.204
7,A28C G29U,0.0915
8,G27C G69U,0.162
9,G27C A44C,0.0898
10,A28G A35G,0.864
11,A28G A35C,1.27
12,A28C G56C,0.101
13,A28C G32U,0.0817
14,A28C G32C,0.121
15,A28C A59G,0.117
16,A28C A59U,0.14
17,G27C C50A,0.242
18,A28G G69A,0.48
19,G27C A30U,0.255
20,A28G U62G,0.183
21,A28G U62A,0.287
22,G29A U53A,0.109
23,G27U U33G,0.145
24,A28G U33C,0.155

row,Variant,self-cleavage
1,G27C G68U,0.147
2,G27A U52A,0.337
3,A28U A44U,0.0894
4,G29A C65U,0.145
5,G29A A71C,0.295
6,G29A A71G,0.112
7,A26U G32C,0.128
8,A26U G32A,0.154
9,A26U G69C,0.247
10,G27U A71C,0.904
11,G27C U60G,0.0405
12,A28G G42U,0.375
13,A28U G29A,0.0881
14,G27C A35U,0.0854
15,A28C C46A,0.191
16,A28C C46G,0.0967
17,A28C C46U,0.151
18,A28G G51U,1.14
19,G27C A31G,0.124
20,G27C A31C,0.131
21,G27A U63A,0.103
22,G27A U63C,0.236
23,G27A U63G,0.134
24,A26U G27U,0.0812

row,Variant,self-cleavage
1,A28U U70A,0.422
2,G27U C50A,0.155
3,A28C U67G,0.184
4,A28C U67A,0.135
5,A26U C48U,0.0687
6,A28G U52G,0.948
7,A28G U52C,0.763
8,G27A U33A,0.0964
9,G29A C38G,0.101
10,G27U A49C,0.225
11,A28U G69A,0.137
12,A28U G69U,0.0991
13,G27U A41C,0.423
14,A28U U58A,0.36
15,G27U A30G,0.0852
16,G29A G56A,0.157
17,A28C G34C,1.5
18,A28G A71U,0.771
19,G29A G57C,0.109
20,G27C C66G,0.156
21,A26U U67G,0.2
22,G27A G57A,0.145
23,G27U C48A,0.0902
24,A26U C46U,0.11

row,Variant,self-cleavage
1,A26U U58C,0.657
2,A28U A47C,0.172
3,G27A A64C,0.189
4,A28U U67G,0.201
5,G27U U53C,0.398
6,G27U U53A,0.111
7,G27C A43U,0.151
8,A28C A45G,0.201
9,A28C A45U,0.134
10,A28G G40A,0.426
11,A26U U55A,0.082
12,A26U G68A,0.23
13,G27C G51U,0.17
14,G27C G51C,0.135
15,G27C G29C,0.163
16,G27U G68C,0.102
17,G27U G68U,0.157
18,G29A U52A,0.115
19,G29A U52G,0.0639
20,G27A U53A,0.371
21,A28G C48A,0.143
22,A28G C48G,0.0684
